Experiment [1] addresses group M consensus gp140 Env, CON-S gp140CFI, WT glycosylated (HIV-1 group M consensus). The experiment in a line: SPR. On the technique in general: Surface plasmon resonance follows binding to a sensor surface in real time, without labels.
Substrate in experiment [2]: CON-S gp140CFI Env, natively deglycosylated with PNGase F 500 U per µg (HIV-1 group M consensus)
Put plainly: SPR.

B1: 2F5 reverted unmutated ancestor antibody RUA1 (antibody, V domains shown)
VH: QITLKESGPTLVKPTQTLTLTCTFSGFSLSTSGVGVGWIRQPPGKALEWLALIYWNDDKRYSPSLKSRLTITKDTSKNQVVLTMTNMDPVDTATYYCAHRRGPTTLFGVVIARGPVNGMDVWGQGTTVTVSS
VL: AIQLTQSPSSLSASVGDRVTITCRASQGISSALAWYQQKPGKAPKLLIYDASSLESGVPSRFSGSGSGTDFTLTISSLQPEDFATYYCQQFNNYPHTFGGGTKVEIK
Usually Kd stands for the free concentration of one partner at which half of the binding sites on the other are occupied at equilibrium, for simple one-to-one binding. For the molecule B1, the values for the Kd in experiment [1] and in experiment [2] were 118 nM and 67 nM, respectively.

B2: 2F5 reverted unmutated ancestor antibody RUA2 (antibody, V domains shown)
VH: QITLKESGPTLVKPTQTLTLTCTFSGFSLSTSGVGVGWIRQPPGKALEWLALIYWDDDKRYGPSLKSRLTITKDTSKNQVVLTMTNMDPVDTATYYCAHRRGPTTLFGVVIARGPVNGMDVWGQGTTVTVSS
VL: AIQLTQSPSSLSASVGDRVTITCRASQGISSALAWYQQKPGKAPKLLIYDASSLESGVPSRFSGSGSGTDFTLTISSLQPEDFATYYCQQFNNYPHTFGGGTKVEIK
As to B2, the Kd amounted to 4000 nM in experiment [1] and 360 nM in experiment [2].

Values taken from PMC3164629.
